{"source": "paper PMC3314626", "about": "“Crystal Structures of the Tetratricopeptide Repeat Domains of Kinesin Light Chains: Insight into Cargo Recognition Mechanisms” (PLoS ONE, 2012)", "molecular_target": "KLC1 TPR domain (kinesin light chain 1 tetratricopeptide repeat domain) (human) (UniProt Q07866)", "experiment": "ITC; protein-protein: 15 uM KLC1-TPR and 160 uM ALC1 protein; 25 C; 30 mM HEPES 7.4, 200 mM NaCl, 0.5 mM TCEP; one-site binding model"}
{"substance": "cytosolic domain of ALC1 protein (alcadein-1) (domain or fragment)", "values": [{"measurement": "Kd", "result": 2400, "unit": "nM"}, {"measurement": "stoichiometry N", "result": 0.85}]}
